Laboratory results as given in paper PMC12507091, “The CsWRKY50-CsREM1-CsTSⅠ module inhibits theanine biosynthesis in tea plants under drought stress”.

Tests used:
CsREM1-GST = target: T1, CsREM1-GST (Camellia sinensis); assay: EMSA; not stated (EMSA protocol per Zhu et al. 2024); details: protein: recombinant; tags: GST (pGEX-4T, N-terminal by vector); blunt
T1 chain: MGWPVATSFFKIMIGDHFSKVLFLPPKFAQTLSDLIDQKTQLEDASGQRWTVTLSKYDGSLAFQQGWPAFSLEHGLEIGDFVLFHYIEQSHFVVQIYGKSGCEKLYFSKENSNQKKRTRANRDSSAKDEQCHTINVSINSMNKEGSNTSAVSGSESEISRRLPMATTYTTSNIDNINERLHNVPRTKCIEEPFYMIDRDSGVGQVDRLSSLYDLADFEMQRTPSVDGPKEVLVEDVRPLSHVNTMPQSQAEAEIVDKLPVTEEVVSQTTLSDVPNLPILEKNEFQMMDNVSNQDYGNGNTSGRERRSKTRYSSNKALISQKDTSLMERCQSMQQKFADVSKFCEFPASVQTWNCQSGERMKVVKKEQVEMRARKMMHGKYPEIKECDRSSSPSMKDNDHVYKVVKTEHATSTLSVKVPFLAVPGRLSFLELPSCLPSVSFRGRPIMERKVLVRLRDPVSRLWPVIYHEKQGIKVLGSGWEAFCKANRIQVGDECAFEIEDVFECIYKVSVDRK

CsWRKY50-GST = CsWRKY50-GST (Camellia sinensis); assay: as above; details: protein: recombinant; tags: GST (pGEX-4T, N-terminal by vector); blunt
CsWRKY50-GST (Camellia sinensis), sequence (chain, as listed by the source): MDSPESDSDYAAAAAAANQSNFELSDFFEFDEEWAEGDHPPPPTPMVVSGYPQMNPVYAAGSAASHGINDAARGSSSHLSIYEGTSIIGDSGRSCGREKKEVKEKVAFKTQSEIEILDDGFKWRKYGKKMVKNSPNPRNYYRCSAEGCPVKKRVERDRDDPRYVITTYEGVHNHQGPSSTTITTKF

B1: CsTSI promoter Probe-1 (dsDNA)
DNA 1: TATGTAATTTTATGTAGAGTTATACAT
DNA 2: ATGTATAACTCTACATAAAATTACATA
binding result (CsREM1-GST): binds

B2: CsTSI promoter Probe-2 (dsDNA)
DNA 1: TTACAACATGCTACACAGACTCGTAAA
DNA 2: TTTACGAGTCTGTGTAGCATGTTGTAA
binding result (CsREM1-GST): binds

B3: CsREM1 promoter Probe (dsDNA)
DNA 1: TTTTGTCTATGTTTTGACTTACTAATAATT
DNA 2: AATTATTAGTAAGTCAAAACATAGACAAAA
binding result (CsWRKY50-GST): binds
